Reference: US20220349880

Assays:
[1] = test system: Peptide H-15: H2N-(CH2)4-CO-Pro-Leu-Ala-Phe-Val-Ala-NH-CH2-Fc
[2] = test system: Peptide H-16: H2N-(CH2)4-CO-Pro-Leu-Ala-Gly-Val-Ala-NH-CH2-Fc
[3] = test system: Peptide H-1: H2N-(CH2)4-CO-Lys-Val-Arg-Phe-Val-Gly-NHCH2-Fc
[4] = test system: Peptide H-2: H2N-(CH2)4-CO-Pro-Thr-Arg-Phe-Val-Gly-NHCH2-Fc
[5] = test system: Peptide H-3: H2N-(CH2)4-CO-Pro-Leu-Arg-Phe-Gly-Ala-NH-CH2-Fc
[6] = test system: Peptide H-4: H2N-(CH2)4-CO-Pro-Val-Gly-Phe-Val-Ala-NHCH2-Fc
[7] = test system: Peptide H-5: H2N-(CH2)4-CO-Ala-Pro-Leu-Arg-Phe-Gly-Ala-Ala-NHCH2-Fc
[8] = test system: Peptide H-6: H2N-(CH2)4-CO-Pro-Leu-Gly-Phe-Val-Ala-NHCH2-Fc
[9] = test system: Peptide H-7: H2N-(CH2)4-CO-Pro-Leu-Gly-Gly-Val-Ala-NHCH2-Fc

recombinant human cathepsin B (rhCB), activated by incubation in 25 mM MES buffer (pH 5.0) containing 5 mM DTT for 15 min
proteolysis rate (electrochemical measurements, fluorogenic assays and HPLC-MS analysis) [1]: three peptides H-3, H-15 and H-16 were selected for this study due to the higher proteolysis rates by cathepsin B compared to other candidates | proteolytic activity among about 30 synthesized peptides [1]: has shown the highest proteolytic activity by cathepsin B | proteolysis rate (electrochemical measurements, fluorogenic assays and HPLC-MS analysis) [2]: three peptides H-3, H-15 and H-16 were selected for this study due to the higher proteolysis rates by cathepsin B compared to other candidates | proteolysis rate (electrochemical measurements, fluorogenic assays and HPLC-MS analysis); one of the 'other candidates' with a lower rate [3]: three peptides H-3, H-15 and H-16 were selected for this study due to the higher proteolysis rates by cathepsin B compared to other candidates | proteolysis rate (electrochemical measurements, fluorogenic assays and HPLC-MS analysis); one of the 'other candidates' with a lower rate [4]: three peptides H-3, H-15 and H-16 were selected for this study due to the higher proteolysis rates by cathepsin B compared to other candidates | proteolysis rate (electrochemical measurements, fluorogenic assays and HPLC-MS analysis) [5]: three peptides H-3, H-15 and H-16 were selected for this study due to the higher proteolysis rates by cathepsin B compared to other candidates | proteolysis rate (electrochemical measurements, fluorogenic assays and HPLC-MS analysis); one of the 'other candidates' with a lower rate [6]: three peptides H-3, H-15 and H-16 were selected for this study due to the higher proteolysis rates by cathepsin B compared to other candidates | proteolysis rate (electrochemical measurements, fluorogenic assays and HPLC-MS analysis); one of the 'other candidates' with a lower rate [7]: three peptides H-3, H-15 and H-16 were selected for this study due to the higher proteolysis rates by cathepsin B compared to other candidates | proteolysis rate (electrochemical measurements, fluorogenic assays and HPLC-MS analysis); one of the 'other candidates' with a lower rate [8]: three peptides H-3, H-15 and H-16 were selected for this study due to the higher proteolysis rates by cathepsin B compared to other candidates | proteolysis rate (electrochemical measurements, fluorogenic assays and HPLC-MS analysis); one of the 'other candidates' with a lower rate [9]: three peptides H-3, H-15 and H-16 were selected for this study due to the higher proteolysis rates by cathepsin B compared to other candidates
